According to patent US8022177B2, “Peptides and calcium regulation in mammalian cells” (The Board of Trustees of the University of Illinois, priority 2005, dated 2011):

B1: γ6L: rat calcium channel γ6 subunit, long isoform (AF361343), SEQ ID NO:48 (protein, listed as Rattus norvegicus)
chain: MMWSNFFMQEEDRRRTAVGRRRAQEQQNLGLTPEREGKIKLGLLVAIVGATLAVLAVGTEFWVELNTYKTNGSAVCEAAHLGLWKVCIKRLWQADVPAGRETCGPAELPGEANCTYFKFFTTGENAHIFQRTTKKEVNLAAAVIAVLGLTAMALGCLCVIMVLSKGAEFLLRLGAVCFGLSGLLLFVSLEVFRHSVRALLQGVNPETPPAPRLAYEYSWSLGCGVGAGLILLLGGVCFLLLTLPSWPWRSLCPKRGGPTA
B2: γ4: rat calcium channel γ4 subunit (AF361341), SEQ ID NO:47 (protein, listed as Rattus norvegicus)
chain: MVRCDRGLQMLLTTAGAFAAFSLMAIAIGTDYWLYSSAHICNGTNLTMDDGPPPRRARGDLTHSGLWRVCCIEGIYKGHCFRINHFPEDNDYDHDSSEYLLRIVRASSVFPILSTILLLLGGLCIGAGRIYSRKNNIVLSAGILFVAAGLSNIIGIIVYISSNTGDPSDKRDEDKKNHYNYGWSFYFGALSFIVAETVGVLAVNIYIEKNKELRFKTKREFLKASSSSPYSRMPSYRYRRRRSRSSSRSTEASPSRDASPVGLKITGAIPMGELSMYTLSREPLKVTTAASYSPDQDAGFLQMHDFFQQDLKEGFHVSMLNRRTTPV

Key:
[1] = tested on: endogenous LVA calcium current in HL-1 cells; assay: Whole-cell patch clamp of endogenous LVA calcium current in HL-1 cells transfected with γ subunits; type: cell-based, mouse
Description: HL-1 cells were a gift from Dr. William C. Claycomb and were maintained as previously reported. Briefly, HL-1 cells were grown in HL-1 medium containing Claycomb medium (JRH Biosciences) supplemented with 10% fetal bovine serum (JRH Biosciences), 0.1 mM norepinephrine (Sigma), 2 mM L-glutamine (Sigma), and 100 U/ml:100 μg/ml:250 ng/ml of penicillin/streptomycin/ amphotericin B (Life Technologies) in a humidified 5% CO2 incubator at 37° C. Cells were passed when confluent at a 1:3 dilution into flasks or plates pre-coated with a 1:80 dilution of fibronectin and 0.02% gelatin (Sigma). Cells from passages 86-108 were used for this study.
2.3. Transfection. Untransfected HEK-293 cells, HEK-293 cell lines stably transfected with Cav3.1, and HL-1 cells were transiently transfected with vectors containing γ subunit, GFP, and modified CFP cDNAs using Lipofectamine 2000 reagent (InVitrogen) as per the manufacturer's recommendations. HEK-293 cells were grown to 70-80% confluence before transfection. HL-1 cells were grown to 50-75% confluence before transfection.
2.4. Electrophysiology. Whole-cell calcium currents were recorded using an Axopatch-1 D patch clamp system and Clampex 8.0 software. Pipettes were fabricated from borosilicate glass and had typical resistances of 2-4 MΩ. […]
Recordings from HEK-293 cells were made 48-96 h posttransfection, at which time expression, as measured by GFP fluorescence, peaked. […] Current-voltage relationships for all HEK-293 and HL-1 cells were measured using 50 ms test depolarizations. Peak current amplitudes for activation curves were determined by fitting tail currents, elicited by stepping membrane voltage from varying test potentials to −60 mV, with the Boltzman equation. […] Inactivation curves were determined by fitting peak amplitudes of currents, observed in a test pulse to −20 mV, following 500 ms steps to varying potentials, with the Boltzman equation. Time to peak was determined using the current-voltage protocol described above. […]

Cav3.1 = target: T1, Cav3.1 (Homo sapiens, UniProt O43497); assay: Whole-cell patch clamp of Cav3.1 LVA current in HEK/Cav3.1 cells transfected with γ6/γ4 chimeric and truncated constructs (Example 2); type: cell-based; settings: Table 1 (Example 2)
T1 construct: expressed in transfected cells; host or cells: HEK-293, stably transfected
Description: Transfection—HEK-293 cell lines stably transfected with Cav3.1 were transiently transfected with vectors containing γ subunit cDNAs using Lipofectamine 2000 reagent (Invitrogen) as per the manufacturer's recommendations. HEK-293 cells were grown to 70-80% confluence before transfection.
Electrophysiology—Whole-cell calcium currents were recorded using an Axopatch-1D patch clamp system and Clampex 8.0 software. Pipettes were fabricated from borosilicate glass and had typical resistances of 2-4 MΩ. The pipette solution contained (in mM): 130 NaCl, 10 EGTA, 2 MgCl2, 1 CaCl2, 10 HEPES, 3 Tris-ATP, and 0.3 Tris-GTP, adjusted to pH 7.4 with NaOH and 280 mOsm with sucrose. The bath solution contained (in mM): 137 NaCl, 1 KCl, 1 MgCl2, 0.33 NaH2PO4, 2 CaCl2, 10 HEPES, and 30 μM TTX, adjusted to pH 7.4 with NaOH and 280 mOsm with sucrose.
Recordings from HEK-293 cells were made 48-96 hours post-transfection, at which time expression, as measured by GFP fluorescence, peaked. All HEK-293 data is from current records in which pipette and whole-cell capacitance were about 100% compensated and series resistance was compensated to >80%. Series resistance values were typically <10 MΩ (megaohms), and no records were used in which the voltage error (as defined by Ver=Imax×Ra) was greater than 5 mV. The holding potential of all protocols used for HEK-293 cells was −100 mV except for steady-state inactivation protocols where the holding potential was −120 mV. Current-voltage relationships for all HEK-293 cells were measured using 50 ms test depolarizations. Peak current amplitudes for activation curves were determined by fitting tail currents, elicited by stepping membrane voltage from varying test potentials to −60 mV, with the Boltzman equation. Test potential steps for activation protocols were of varied durations, corresponding to the time to peak of the elicited current. Inactivation curves were determined by fitting peak amplitudes of currents, observed in a test pulse to −20 mV, following 500 ms steps to varying potentials, with the Boltzman equation. Time to peak was determined using the current-voltage protocol described above. Inactivation time constants were determined by fitting the decay phase of currents to an exponential equation and deactivation time constants were determined by fitting the decay phase of tail currents to an exponential equation. […] When a double exponential equation was used to fit Cav3.1 tail currents, the magnitude of the fast component was about 10 fold that of the slow component. Currents were recorded at 40 kHz and on-line filtered at 5. In some cases currents were off-line filtered at 1 kHz to further reduce noise. Current-voltage relationships and tail currents were recorded from HEK cells using an on-line P/−4 subtraction procedure. The average membrane capacitance of untransfected HEK-293 cells in pilot experiments was 12.5+/−0.4 pF (n=8).
Statistical Analysis—All data are reported as mean±SEM and tested for significance by one-way ANOVA. A value of P<0.05 was considered significant and when significant p-values were encountered groups were compared using the Tukey post-hoc test.

T1 sequence (O43497 whole entry, the tested form may be a part): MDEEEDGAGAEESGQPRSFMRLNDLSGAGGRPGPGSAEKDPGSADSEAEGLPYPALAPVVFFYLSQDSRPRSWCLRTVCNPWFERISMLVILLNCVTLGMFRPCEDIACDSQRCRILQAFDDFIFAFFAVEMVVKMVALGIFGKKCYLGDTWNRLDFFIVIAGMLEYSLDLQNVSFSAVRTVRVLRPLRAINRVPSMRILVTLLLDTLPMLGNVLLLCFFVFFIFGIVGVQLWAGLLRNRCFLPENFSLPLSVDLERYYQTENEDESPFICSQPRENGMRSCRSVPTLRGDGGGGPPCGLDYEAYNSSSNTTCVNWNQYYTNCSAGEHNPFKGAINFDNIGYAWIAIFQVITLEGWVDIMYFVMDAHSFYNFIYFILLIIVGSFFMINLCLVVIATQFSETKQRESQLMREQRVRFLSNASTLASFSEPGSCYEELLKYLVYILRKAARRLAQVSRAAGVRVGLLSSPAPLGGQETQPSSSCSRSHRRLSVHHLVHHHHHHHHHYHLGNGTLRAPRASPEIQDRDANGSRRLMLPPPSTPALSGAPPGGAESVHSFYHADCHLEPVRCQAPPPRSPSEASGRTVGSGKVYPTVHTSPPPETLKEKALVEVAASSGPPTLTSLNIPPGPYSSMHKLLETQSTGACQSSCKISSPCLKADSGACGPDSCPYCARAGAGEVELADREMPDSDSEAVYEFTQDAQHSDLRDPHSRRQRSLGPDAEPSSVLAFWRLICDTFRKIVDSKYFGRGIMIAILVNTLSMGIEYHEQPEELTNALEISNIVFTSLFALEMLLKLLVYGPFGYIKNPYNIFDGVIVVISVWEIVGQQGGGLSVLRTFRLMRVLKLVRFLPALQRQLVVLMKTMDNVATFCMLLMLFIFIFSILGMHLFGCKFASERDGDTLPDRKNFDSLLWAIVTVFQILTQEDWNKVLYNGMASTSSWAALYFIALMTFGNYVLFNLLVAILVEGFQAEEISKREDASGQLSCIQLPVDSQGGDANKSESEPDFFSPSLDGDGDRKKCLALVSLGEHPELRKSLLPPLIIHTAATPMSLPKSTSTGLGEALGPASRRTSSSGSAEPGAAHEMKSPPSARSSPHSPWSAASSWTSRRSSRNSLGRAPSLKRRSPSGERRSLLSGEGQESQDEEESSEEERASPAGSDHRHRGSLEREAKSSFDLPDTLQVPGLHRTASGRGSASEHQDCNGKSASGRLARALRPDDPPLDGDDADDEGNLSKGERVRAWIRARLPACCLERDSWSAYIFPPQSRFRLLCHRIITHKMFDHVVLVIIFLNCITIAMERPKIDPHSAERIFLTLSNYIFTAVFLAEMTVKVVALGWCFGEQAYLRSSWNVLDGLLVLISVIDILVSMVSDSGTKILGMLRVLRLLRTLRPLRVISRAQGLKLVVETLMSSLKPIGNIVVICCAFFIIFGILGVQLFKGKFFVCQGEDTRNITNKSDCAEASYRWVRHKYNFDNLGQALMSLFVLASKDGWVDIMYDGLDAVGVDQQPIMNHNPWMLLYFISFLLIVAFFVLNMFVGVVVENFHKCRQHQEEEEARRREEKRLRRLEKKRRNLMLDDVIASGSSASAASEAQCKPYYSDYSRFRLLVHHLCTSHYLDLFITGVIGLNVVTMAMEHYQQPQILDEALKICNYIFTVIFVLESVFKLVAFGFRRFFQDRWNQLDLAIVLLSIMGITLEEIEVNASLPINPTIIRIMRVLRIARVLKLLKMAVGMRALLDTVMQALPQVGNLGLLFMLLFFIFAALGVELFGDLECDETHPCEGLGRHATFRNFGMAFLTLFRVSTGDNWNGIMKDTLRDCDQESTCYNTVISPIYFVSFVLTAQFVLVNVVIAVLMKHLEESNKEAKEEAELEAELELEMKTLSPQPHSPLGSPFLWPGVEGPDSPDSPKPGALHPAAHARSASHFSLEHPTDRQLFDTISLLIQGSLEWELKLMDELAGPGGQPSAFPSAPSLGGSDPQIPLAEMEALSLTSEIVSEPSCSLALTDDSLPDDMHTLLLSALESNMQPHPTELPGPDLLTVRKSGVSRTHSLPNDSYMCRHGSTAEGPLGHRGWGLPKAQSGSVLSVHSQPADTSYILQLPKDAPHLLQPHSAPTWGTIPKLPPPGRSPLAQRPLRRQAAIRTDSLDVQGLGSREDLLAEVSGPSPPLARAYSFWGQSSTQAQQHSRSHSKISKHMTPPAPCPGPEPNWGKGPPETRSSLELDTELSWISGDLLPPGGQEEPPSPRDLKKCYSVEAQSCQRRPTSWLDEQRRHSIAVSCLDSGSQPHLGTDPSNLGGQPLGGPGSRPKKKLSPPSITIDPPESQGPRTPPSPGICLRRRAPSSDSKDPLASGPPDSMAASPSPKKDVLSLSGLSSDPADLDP

Molecule | LVA current density [1] | Reduction of endogenous LVA current density from control ([1]; transient expression) | Activation V 0.5 (Cav3.1) | Activation k (Cav3.1) | Deactivation tau @ −100 mV, Fast (Cav3.1) | Inactivation V 0.5 (Cav3.1) | Inactivation k (Cav3.1) | Inactivation tau @−20 mV (Cav3.1) | Time to peak @ −20 mV (Cav3.1) | V peak (Cav3.1)
B1 | 3.37±0.62 pA/pF | 63% | −36.3 ± 6.2 (n = 4) mV | 12.7 ± 1.5 (n = 4) | 1.54 ± 0.48 (n = 4) ms | −78.5 ± 2.6 (n = 6) mV | 5.4 ± 0.3 (n = 6) | 18.6 ± 1.1 (n = 6) ms | 6.0 ± 0.8 (n = 5) ms | −31.1 ± 3.1 (n = 9) mV
B2 | 9.14±1.34 pA/pF |  | −37.3 ± 0.9 (n = 8) mV | 11.8 ± 0.5 (n = 8) | 1.84 ± 0.28 (n = 8) ms | −79.2 ± 1.5 (n = 7) mV | 6.1 ± 0.2 (n = 7) | 15.8 ± 0.7 (n = 7) ms | 5.2 ± 0.5 (n = 9) ms | −30.6 ± 1.5 (n = 9) mV
